Columns and labels:
[1] = biological target: T1, 人源性Prdx1重组蛋白 (recombinant peroxiredoxin 1 protein bought from Abclone) (human, UniProt Q06830 1-199, limits assumed); experiment: ELISA on recombinant human Prdx1
T1 construct: Bought recombinant protein; also called 重组prdx1蛋白; 重组Prdx1
T1 sequence (looked up): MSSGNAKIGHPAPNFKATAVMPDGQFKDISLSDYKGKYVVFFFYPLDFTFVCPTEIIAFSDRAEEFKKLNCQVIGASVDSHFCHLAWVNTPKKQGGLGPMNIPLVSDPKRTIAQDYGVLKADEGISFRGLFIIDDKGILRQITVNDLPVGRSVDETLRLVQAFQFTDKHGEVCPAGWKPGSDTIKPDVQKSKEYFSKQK

[2] = biological target: T2, 小鼠Prdx1蛋白 (endogenous mouse Prdx1 in liver, lung, kidney tissue and primary macrophages) (mouse, UniProt P35700 2-199); experiment: Western blot on mouse liver, lung, kidney, primary macrophages
T2 construct: Endogenous protein, denatured on Western blot; also called 鼠源性Prdx1蛋白; 小鼠的Prdx1蛋白
T2 sequence (looked up): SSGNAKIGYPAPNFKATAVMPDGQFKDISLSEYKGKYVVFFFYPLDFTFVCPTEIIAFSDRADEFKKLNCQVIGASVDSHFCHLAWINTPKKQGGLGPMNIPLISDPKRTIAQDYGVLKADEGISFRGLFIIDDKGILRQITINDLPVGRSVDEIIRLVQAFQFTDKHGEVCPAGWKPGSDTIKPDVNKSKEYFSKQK

B1: 抗Prdx1蛋白的单克隆中和抗体 (mouse monoclonal anti-human Prdx1 neutralizing antibody, Example 4) (antibody, V domains shown)
VH: QVQLQQSGPELMKPGASVKISCKATGYTFSNSWIEWVKQRPGHGLEWIGEILPGSGDTDYNEKFKGKATITADTSSNTAYMQLSSLTSEDSAVYYCASPYGDYFFANWGLGTLVTVSA
VL: DIVITQDELSNPVTSGESVSISCRSSKSLLYKDGKTYLNWFLQRPGQSPQLLIYLMSTRAAGVSDRFSGSGSGTDFTLEISRVKAEDVGVYYCQQLVEYPYTFGGGTKLEIK
notes: Mouse (BALB/c) hybridoma IgG purified from ascites on protein G; also called Prdx1单克隆抗体; Prdx1单克隆中和抗体
binding result [1]: binds | binding result [2]: binds

From CN117003877A (XIANGYA HOSPITAL CENTRAL SOUTH UNIV, dated 2023)
